Measurements as given in patent US20170165339A1 (IMMATICS BIOTECHNOLOGIES, published 2017).

Target: HLA-A*02 (human)
Assay: UV peptide-exchange ELISA, yield grade

B1: YLWATIQRI (SEQ ID NO: 145) (peptide)
peptide: YLWATIQRI
Work on B1 yielded a peptide exchange yield of 50 to 75%.

B2: FTIFRTISV (SEQ ID NO: 121) (peptide)
peptide: FTIFRTISV
B2 showed a peptide exchange yield of 50 to 75%.

B3: ILVEGISTV (SEQ ID NO: 142) (peptide)
peptide: ILVEGISTV
Work on B3 yielded a peptide exchange yield of 50 to 75%.

B4: HLSTIIHEA (SEQ ID NO: 135) (peptide)
peptide: HLSTIIHEA
For B4, the peptide exchange yield was 50 to 75%.

B5: VTSNSGILGV (SEQ ID NO: 131) (peptide)
peptide: VTSNSGILGV
B5 was tested, and the peptide exchange yield was 50 to 75%.

B6: GLAVPTPSV (SEQ ID NO: 134) (peptide)
peptide: GLAVPTPSV
With B6 the peptide exchange yield was 50 to 75%.

B7: LLNPVVEFV (SEQ ID NO: 155) (peptide)
peptide: LLNPVVEFV
B7 was tested, and the peptide exchange yield was 50 to 75%.

B8: FLLGVSKEV (SEQ ID NO: 110) (peptide)
peptide: FLLGVSKEV
B8 was tested, and the peptide exchange yield was 50 to 75%.

B9: ALHFSEDEI (SEQ ID NO: 146) (peptide)
peptide: ALHFSEDEI
Work on B9 yielded a peptide exchange yield of 20 to 49%.

B10: ALLAKILQI (SEQ ID NO: 138) (peptide)
peptide: ALLAKILQI
B10 gave a peptide exchange yield of 50 to 75%.

B11: ILGEVLAQL (SEQ ID NO: 132) (peptide)
peptide: ILGEVLAQL
For B11, the peptide exchange yield was 50 to 75%.

B12: FLDKVLVAA (SEQ ID NO: 141) (peptide)
peptide: FLDKVLVAA
Binder B12 has a peptide exchange yield of 50 to 75%.

B13: SLLGGTFVGI (SEQ ID NO: 130) (peptide)
peptide: SLLGGTFVGI
Work on B13 yielded a peptide exchange yield of 50 to 75%.

B14: QLAPVFQRV (SEQ ID NO: 89) (peptide)
peptide: QLAPVFQRV
For B14, the peptide exchange yield was 20 to 49%.

B15: GLLFSLRSV (SEQ ID NO: 92) (peptide)
peptide: GLLFSLRSV
With B15 the peptide exchange yield was no less than 75%.

B16: GQASYFYVA (SEQ ID NO: 83) (peptide)
peptide: GQASYFYVA
For B16, the peptide exchange yield was 20 to 49%.

B17: QMFQYFITV (SEQ ID NO: 126) (peptide)
peptide: QMFQYFITV
Binder B17 has a peptide exchange yield of no less than 75%.

B18: SLDPSVTHL (SEQ ID NO: 109) (peptide)
peptide: SLDPSVTHL
With B18 the peptide exchange yield was 20 to 49%.

B19: QLWQFLVTL (SEQ ID NO: 118) (peptide)
peptide: QLWQFLVTL
Binder B19 has a peptide exchange yield of 50 to 75%.

B20: AQADHLPQL (SEQ ID NO: 88) (peptide)
peptide: AQADHLPQL
With B20 the peptide exchange yield was 20 to 49%.

B21: TLTSLLAQA (SEQ ID NO: 157) (peptide)
peptide: TLTSLLAQA
With B21 the peptide exchange yield was 50 to 75%.

B22: FLLPTGAEA (SEQ ID NO: 139) (peptide)
peptide: FLLPTGAEA
With B22 the peptide exchange yield was 20 to 49%.

B23: SLADYEHFV (SEQ ID NO: 125) (peptide)
peptide: SLADYEHFV
B23 showed a peptide exchange yield of no less than 75%.

B24: ALADFMLSL (SEQ ID NO: 101) (peptide)
peptide: ALADFMLSL
In the case of B24, the peptide exchange yield is reported as 50 to 75%.

B25: MLAGIAITV (SEQ ID NO: 148) (peptide)
peptide: MLAGIAITV
In the case of B25, the peptide exchange yield is reported as 50 to 75%.

B26: VLLDIQEVFQI (SEQ ID NO: 102) (peptide)
peptide: VLLDIQEVFQI
B26 gave a peptide exchange yield of 50 to 75%.

B27: FLQDLEQRL (SEQ ID NO: 90) (peptide)
peptide: FLQDLEQRL
Work on B27 yielded a peptide exchange yield of 50 to 75%.

B28: YLLQSVNQLLL (SEQ ID NO: 99) (peptide)
peptide: YLLQSVNQLLL
B28 gave a peptide exchange yield of 20 to 49%.

B29: ILLKNLVTI (SEQ ID NO: 108) (peptide)
peptide: ILLKNLVTI
For B29, the peptide exchange yield was 20 to 49%.

B30: YLMDDTVEI (SEQ ID NO: 147) (peptide)
peptide: YLMDDTVEI
B30 gave a peptide exchange yield of no less than 75%.

B31: ALLPRLHQL (SEQ ID NO: 133) (peptide)
peptide: ALLPRLHQL
For B31, the peptide exchange yield was no less than 75%.

B32: KMPDVELFV (SEQ ID NO: 117) (peptide)
peptide: KMPDVELFV
B32 was tested, and the peptide exchange yield was 50 to 75%.

B33: QLIQTLHAV (SEQ ID NO: 114) (peptide)
peptide: QLIQTLHAV
B33 was tested, and the peptide exchange yield was 50 to 75%.

B34: ALLGTKILL (SEQ ID NO: 105) (peptide)
peptide: ALLGTKILL
B34 gave a peptide exchange yield of 50 to 75%.

B35: ALLPELREV (SEQ ID NO: 143) (peptide)
peptide: ALLPELREV
For B35, the peptide exchange yield was 50 to 75%.

B36: MMVGDLLEV (SEQ ID NO: 152) (peptide)
peptide: MMVGDLLEV
B36 showed a peptide exchange yield of 50 to 75%.

B37: TIYKDFVYI (SEQ ID NO: 87) (peptide)
peptide: TIYKDFVYI
With B37 the peptide exchange yield was 20 to 49%.

B38: FLERGLESA (SEQ ID NO: 113) (peptide)
peptide: FLERGLESA
Work on B38 yielded a peptide exchange yield of 20 to 49%.

B39: KLQNIMMLL (SEQ ID NO: 230) (peptide)
peptide: KLQNIMMLL
For B39, the peptide exchange yield was 20 to 49%.

B40: HLFDAFVSV (SEQ ID NO: 233) (peptide)
peptide: HLFDAFVSV
For B40, the peptide exchange yield was 50 to 75%.

B41: ALISWQPPRA (SEQ ID NO: 104) (peptide)
peptide: ALISWQPPRA
Binder B41 has a peptide exchange yield of 50 to 75%.

B42: VLNDILVRA (SEQ ID NO: 85) (peptide)
peptide: VLNDILVRA
B42 showed a peptide exchange yield of 50 to 75%.

B43: LLVSHLYLV (SEQ ID NO: 96) (peptide)
peptide: LLVSHLYLV
Binder B43 has a peptide exchange yield of 20 to 49%.

B44: RLQDILWFL (SEQ ID NO: 129) (peptide)
peptide: RLQDILWFL
For B44, the peptide exchange yield was no less than 75%.

B45: RLFPDFFTRVAL (SEQ ID NO: 98) (peptide)
peptide: RLFPDFFTRVAL
B45 showed a peptide exchange yield of 20 to 49%.

B46: LLLPAVPVGA (SEQ ID NO: 94) (peptide)
peptide: LLLPAVPVGA
Binder B46 has a peptide exchange yield of 50 to 75%.

B47: FIIQGLRSVGA (SEQ ID NO: 119) (peptide)
peptide: FIIQGLRSVGA
For B47, the peptide exchange yield was 50 to 75%.

B48: ILNTHITEL (SEQ ID NO: 149) (peptide)
peptide: ILNTHITEL
B48 was tested, and the peptide exchange yield was 50 to 75%.

B49: FINDSIVYL (SEQ ID NO: 106) (peptide)
peptide: FINDSIVYL
For B49, the peptide exchange yield was 50 to 75%.

B50: KLDGNELDL (SEQ ID NO: 127) (peptide)
peptide: KLDGNELDL
For B50, the peptide exchange yield was 50 to 75%.

B51: KIFPAALQLV (SEQ ID NO: 232) (peptide)
peptide: KIFPAALQLV
With B51 the peptide exchange yield was 50 to 75%.

B52: ILGDLSHLL (SEQ ID NO: 156) (peptide)
peptide: ILGDLSHLL
Binder B52 has a peptide exchange yield of 50 to 75%.

B53: MLDKYSHYL (SEQ ID NO: 231) (peptide)
peptide: MLDKYSHYL
In the case of B53, the peptide exchange yield is reported as 50 to 75%.

B54: FISERVEVV (SEQ ID NO: 153) (peptide)
peptide: FISERVEVV
In the case of B54, the peptide exchange yield is reported as no less than 75%.

B55: AIVDLIHDI (SEQ ID NO: 111) (peptide)
peptide: AIVDLIHDI
For B55, the peptide exchange yield was 20 to 49%.

B56: SLGKFTFDV (SEQ ID NO: 112) (peptide)
peptide: SLGKFTFDV
B56 showed a peptide exchange yield of no less than 75%.

B57: RLLGTEFQV (SEQ ID NO: 154) (peptide)
peptide: RLLGTEFQV
B57 showed a peptide exchange yield of 50 to 75%.

B58: VLDPALPALV (SEQ ID NO: 123) (peptide)
peptide: VLDPALPALV
Binder B58 has a peptide exchange yield of 20 to 49%.

B59: AILAHLNTV (SEQ ID NO: 229) (peptide)
peptide: AILAHLNTV
In the case of B59, the peptide exchange yield is reported as no less than 75%.

B60: SLDPDTLPAV (SEQ ID NO: 115) (peptide)
peptide: SLDPDTLPAV
In the case of B60, the peptide exchange yield is reported as 20 to 49%.

B61: GVVDPVHGV (SEQ ID NO: 122) (peptide)
peptide: GVVDPVHGV
Binder B61 has a peptide exchange yield of 20 to 49%.

B62: KVMATIEKV (SEQ ID NO: 124) (peptide)
peptide: KVMATIEKV
Work on B62 yielded a peptide exchange yield of 20 to 49%.

B63: FIFDEAEKL (SEQ ID NO: 82) (peptide)
peptide: FIFDEAEKL
B63 showed a peptide exchange yield of less than 20%.

B64: VLYDRPLKI (SEQ ID NO: 150) (peptide)
peptide: VLYDRPLKI
Work on B64 yielded a peptide exchange yield of 50 to 75%.

B65: GLLGSLFFL (SEQ ID NO: 95) (peptide)
peptide: GLLGSLFFL
B65 was tested, and the peptide exchange yield was no less than 75%.

B66: LLVPTSGIYFV (SEQ ID NO: 107) (peptide)
peptide: LLVPTSGIYFV
With B66 the peptide exchange yield was 50 to 75%.

B67: VTPVTVSAV (SEQ ID NO: 120) (peptide)
peptide: VTPVTVSAV
B67 showed a peptide exchange yield of less than 20%.

B68: SVDSHFQEV (SEQ ID NO: 86) (peptide)
peptide: SVDSHFQEV
With B68 the peptide exchange yield was 20 to 49%.

B69: YLVSEIFKA (SEQ ID NO: 103) (peptide)
peptide: YLVSEIFKA
In the case of B69, the peptide exchange yield is reported as 50 to 75%.

B70: ALLGMIIVGV (SEQ ID NO: 100) (peptide)
peptide: ALLGMIIVGV
For B70, the peptide exchange yield was less than 20%.

B71: TQSPATLSV (SEQ ID NO: 128) (peptide)
peptide: TQSPATLSV
Binder B71 has a peptide exchange yield of 20 to 49%.

B72: SVLDSTAKV (SEQ ID NO: 151) (peptide)
peptide: SVLDSTAKV
For B72, the peptide exchange yield was 20 to 49%.

B73: FLFGGVLMTL (SEQ ID NO: 136) (peptide)
peptide: FLFGGVLMTL
B73 was tested, and the peptide exchange yield was 20 to 49%.

B74: ALCPRIHEV (SEQ ID NO: 84) (peptide)
peptide: ALCPRIHEV
Binder B74 has a peptide exchange yield of no less than 75%.

B75: ALLAFFPGL (SEQ ID NO: 144) (peptide)
peptide: ALLAFFPGL
Work on B75 yielded a peptide exchange yield of 50 to 75%.
